In paper doi:10.1101/216812:

Target: biotinylated, taxol-stabilized microtubules tethered to coverslips (TIRF binding assays)
Experiment: TIRF microscopy of single particles

## 549SNAP-6HIS-3FLAG-KKT4 charge-reversal mutant (R123E, K132E, R154E), full length (natural protein)
  fold change of average residence time against wild-type KKT4: 2 fold

## 549SNAP-6HIS-3FLAG-KKT4, full-length wild-type KKT4 (natural protein)
  average residence time: 5.4 s
